{"source": "patent US20050032221A1", "about": "“Dominant negative variants of methionine aminopeptidase 2 (MetAP2) and clinical uses thereof” (priority 2001, published 2005)", "key": {"[1]": {"test_system": "peptide substrate (MGMM)", "test": "MetAP activity assay of immunopurified HA-tagged yeast MetAP2 with Met-Gly-Met-Met", "assay_type": "biochemical", "conditions": "immunopurified HA-tagged enzyme from map1Δ; 2 mM Met-Gly-Met-Met", "method": "[…]. Approximately 2 μg of purified wild-type MetAP2 (WT) and MetAP2 (H174A) was separated on a 10% SDS-PAGE gel and visualized with coomassie blue staining. Specific activity for the wild-type MetAP2 was 11±0.5 U/mg.\nThe purification of HA-tagged wild-type and mutant yeast MetAP2 from a yeast map1Δ strain (Klinkenberg et al., Arch. Biochem. Biophys. 347:193-200, 1997) was performed as previously described (Li and Chang, 1995) with slight modifications. A 1-liter yeast culture was grown aerobically at 30° C. in SG/Leu^− medium. Cells were collected at an OD600˜1-2 by centrifugation at 1500×g for 5 min. The pellet was rinsed with buffer XL (10 mM Hepes, pH 7.4; 1.5 mM MgCl2, 10% Glycerol [v/v]) plus 100 mM NaCl and fresh protease inhibitors (1 μg/ml aprotinin, 1 μg/ml leupeptin, 0.7 μg/ml pepstatin A, 1 mM phenylmethylsulfonyl fluoride). Cells were disrupted by vortexing (5 cycles of 1 min vortexing, 1 min on ice) with 0.5-mm acid-washed glass beads (Biospec Products, Inc.,). The lysate was then cleared at 10,000×g for 20 min at 4° C. Cleared lysate was applied to a Protein-Sepharose G column (Pharmacia) previously rinsed and pre-equilibrated with buffer XL and an anti-hemagglutinin epitope ([…]; SEQ ID NO:23) monoclonal antibody (BabCO). After loading, the column was washed with buffer XL until OD280<0.01. […]"}, "[2]": {"test_system": "yeast map1Δ strain", "test": "Yeast growth assay, map1Δ, expression under GAL1 promoter", "assay_type": "cell-based, yeast (S. cerevisiae)", "conditions": "galactose plates, 4 days at 30° C.", "method": "A haploid yeast map1Δ strain was transformed to leucine prototrophy with p425GAL1/MAP2 wild-type (WT), p425GAL1/map2 (H174A), or p425GAL1 vector alone (V). Each strain was grown to mid-logarithmic phase at 30° C. in minimal synthetic raffinose medium lacking leucine. Approximately 2×10^5 cells (ABS600) were then streaked onto minimal synthetic plates lacking leucine and supplemented with (A) glucose or (B) galactose. Plates were incubated for 4 days at 30° C.\nA haploid yeast map1Δ strain was transformed to leucine prototrophy with p425GAL1/MAP2 wild-type (WT), p425GAL1/map2 ([…]), p425GAL1/map2 (Δ2-57/H174A) or p425GAL1 vector alone (V). Each strain was grown to mid-logarithmic phase at 30° C. in minimal synthetic raffinose medium lacking leucine. […]\nFor relative growth comparison, strains were grown to mid-logarithmic phase in 5 ml of 2% raffinose minimal media lacking leucine and ˜2×10^5 cells (ABS600) were streaked onto SD/Leu^− or SG/Leu^− plates, then incubated for 4 days at 30° C. For quantitative comparison, a growth curve was obtained (FIG. 4). […] The ABS600 of each 1 mL culture was measured and diluted to an ABS600 of 0.2 in 5 mL of SG/Leu^−. Each 5 mL culture was then grown aerobically at 30° C. and the ABS600 was measured in triplicate at one-hour intervals."}}}
{"molecule": "wild-type MetAP2: wild-type yeast MetAP2 with N-terminal hemagglutinin tag (SEQ ID NO:14) (protein, listed as Saccharomyces sp., N-terminal HA tag; Yeast MetAP2) MTDAEIENSPASDLKELNLENEGVEQQDQAKADESDPVESKKKKNKKKKKKKSNVKKIELLFPDGKYPEGAWMDYHQDFNLQRTTDEESRYLKRDLERAEHWNDVRKGAEIHRRVRRAIKDRIVPGMKLMDIADMIENTTRKYTGAENLLAMEDPKSQGIGFPTGLSLNHCAAHFTPNAGDKTVLKYEDVMKVDYGVQVNGNIIDSAFTVSFDPQYDNLLAAVKDATYTGIKEAGIDVRLTDIGEAIQEVMESYEVEINGETYQVKPCRNLCGHSIAPYRIHGGKSVPIVKNGDTTKMEEGEHFAIETFGSTGRGYVTAGGEVSHYARSAEDHQVMPTLDSAKNLLKTIDRNFGTLPFCRRYLDRLGQEKYLFALNNLVRHGLVQDYPPLNDIPGSYTAQFEHTILLHAHKKEVVSKGDDYGKMRFQMASSLGIILL", "values": [{"measurement": "Specific activity", "setting": "[1]", "value": "11±0.5", "unit": "U/mg"}, {"measurement": "colony size / growth relative to map1Δ with vector alone", "setting": "[2]", "value": "largest observed"}]}
